Assay results published in article PMC5714945, “A homologue of the Parkinson’s disease-associated protein LRRK2 undergoes a monomer-dimer transition during GTP turnover” (Nature Communications, 2017).
Changes are numbered by the printed parent chain. Names may count otherwise.

What was measured:
[1] = target: T1, CtRoc-COR (Chlorobaculum tepidum, UniProt Q8KC98, S928C, form not given); assay: stopped-flow Cy3/Cy5 FRET, monomerization; type: binding; conditions: 50 µM or 1 µM GTP, Cy3/Cy5-labelled protein, 25 °C
T1 construct: gene CT1526; Roc-COR domains, residues 412-946, N-terminal His-tag (pProEX), E. coli BL21(DE3); dimer nucleotide-free, about 65 kDa monomer

[2] = target: T2, CtRoc-COR (Chlorobaculum tepidum, UniProt Q8KC98); assay: SEC-SAXS, SEC-MALS, native MS, SV-AUC (oligomeric shift); type: binding; conditions: pre-incubated with 1 mM (SAXS, MALS), pH 7.5, 5 mM MgCl2
T2 construct: gene CT1526; Roc-COR domains, residues 412-946, N-terminal His-tag (pProEX), E. coli BL21(DE3); dimer nucleotide-free, about 65 kDa monomer
T2 sequence (Q8KC98 412-946): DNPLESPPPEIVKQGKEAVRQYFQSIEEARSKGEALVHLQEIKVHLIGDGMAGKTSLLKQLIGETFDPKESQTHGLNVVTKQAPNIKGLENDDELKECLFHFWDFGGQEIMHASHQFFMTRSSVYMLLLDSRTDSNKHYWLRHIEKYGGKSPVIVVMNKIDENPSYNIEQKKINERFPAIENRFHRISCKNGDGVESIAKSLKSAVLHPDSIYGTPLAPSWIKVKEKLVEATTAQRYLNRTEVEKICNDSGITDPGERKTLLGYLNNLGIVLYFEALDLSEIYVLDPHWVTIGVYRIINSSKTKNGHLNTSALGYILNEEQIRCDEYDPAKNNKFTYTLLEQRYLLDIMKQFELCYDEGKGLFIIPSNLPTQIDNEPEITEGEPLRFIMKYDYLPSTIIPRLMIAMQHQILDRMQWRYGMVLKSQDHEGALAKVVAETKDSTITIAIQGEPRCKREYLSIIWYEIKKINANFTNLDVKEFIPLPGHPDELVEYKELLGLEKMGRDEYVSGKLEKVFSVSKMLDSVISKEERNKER

[3] = target: T3, CtRoco (Chlorobaculum tepidum, UniProt Q8KC98); assay: SEC-SAXS, SEC-MALS, native MS, AUC, negative-stain EM (oligomeric shift); type: binding; conditions: pre-incubated with 1 mM (SAXS, MALS, EM), pH 7.5, 5 mM MgCl2
T3 construct: gene CT1526; full length, residues 1-1102, N-terminal His-tag (pProEX), E. coli BL21(DE3); dimer nucleotide-free, monomer/dimer equilibrium with GppNHp
T3 sequence (Q8KC98 1-1102): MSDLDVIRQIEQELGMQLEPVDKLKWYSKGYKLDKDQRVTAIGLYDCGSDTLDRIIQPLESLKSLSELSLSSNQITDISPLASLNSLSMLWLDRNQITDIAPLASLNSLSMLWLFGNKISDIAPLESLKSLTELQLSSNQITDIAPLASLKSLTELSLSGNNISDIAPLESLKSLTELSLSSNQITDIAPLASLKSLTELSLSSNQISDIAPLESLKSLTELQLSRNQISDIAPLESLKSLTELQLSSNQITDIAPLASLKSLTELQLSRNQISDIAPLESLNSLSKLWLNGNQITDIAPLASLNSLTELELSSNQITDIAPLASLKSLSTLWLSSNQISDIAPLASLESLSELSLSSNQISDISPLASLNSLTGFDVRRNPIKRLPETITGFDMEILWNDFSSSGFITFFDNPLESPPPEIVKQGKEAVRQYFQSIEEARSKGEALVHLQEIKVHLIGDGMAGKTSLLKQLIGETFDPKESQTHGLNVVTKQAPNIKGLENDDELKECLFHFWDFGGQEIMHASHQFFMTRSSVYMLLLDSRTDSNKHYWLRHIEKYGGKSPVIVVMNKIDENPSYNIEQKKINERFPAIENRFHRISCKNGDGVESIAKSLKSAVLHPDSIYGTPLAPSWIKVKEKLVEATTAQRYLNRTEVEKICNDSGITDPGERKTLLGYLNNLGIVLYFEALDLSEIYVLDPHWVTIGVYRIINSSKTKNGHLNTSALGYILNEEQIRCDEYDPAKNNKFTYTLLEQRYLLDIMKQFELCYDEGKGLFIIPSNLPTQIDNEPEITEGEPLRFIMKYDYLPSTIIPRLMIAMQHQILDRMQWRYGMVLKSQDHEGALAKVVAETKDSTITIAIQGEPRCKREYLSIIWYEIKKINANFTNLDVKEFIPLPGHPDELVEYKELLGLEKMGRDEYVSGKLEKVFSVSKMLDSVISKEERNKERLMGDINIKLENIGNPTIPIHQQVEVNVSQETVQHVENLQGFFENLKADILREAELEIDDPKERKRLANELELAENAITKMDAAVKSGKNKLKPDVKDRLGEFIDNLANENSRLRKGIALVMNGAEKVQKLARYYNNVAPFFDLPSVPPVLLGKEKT

[4] = target: the molecule itself; assay: cell-based or functional assay
[5] = target: the molecule itself; assay: SEC-MALS; nucleotide-free protein; 10 µl of 8 mg ml^-1 injected on a Bio SEC-3 column; buffer as for SEC-SAXS
[6] = target: the molecule itself; assay: native MS; GppNHp: pre-incubated with 500 µM, 100 µM in 150 mM ammonium acetate pH 7.5; protein 12.5-16 µM
[7] = target: the molecule itself; assay: SEC-SAXS; nucleotide-free protein; 50 µl of 8 mg ml^-1 injected on a Bio SEC-3 column; 20 mM Hepes pH 7.5, 150 mM NaCl, 5 mM MgCl2, 5% glycerol, 1 mM DTT; mass from Porod volume
[8] = target: the molecule itself; assay: AUC; sedimentation equilibrium, with GppNHp; dimer to monomers; 7.2, 4.5 and 2.7 µM protein; buffer as SV-AUC; SEDPHAT monomer-dimer model; approximate KD
[9] = target: the molecule itself; assay: AUC; sedimentation equilibrium, with GDP; dimer to monomers; 7.2, 4.5 and 2.7 µM protein; buffer as SV-AUC; SEDPHAT monomer-dimer model; approximate KD

T1 sequence (Q8KC98 entry or part of it S928C, form open): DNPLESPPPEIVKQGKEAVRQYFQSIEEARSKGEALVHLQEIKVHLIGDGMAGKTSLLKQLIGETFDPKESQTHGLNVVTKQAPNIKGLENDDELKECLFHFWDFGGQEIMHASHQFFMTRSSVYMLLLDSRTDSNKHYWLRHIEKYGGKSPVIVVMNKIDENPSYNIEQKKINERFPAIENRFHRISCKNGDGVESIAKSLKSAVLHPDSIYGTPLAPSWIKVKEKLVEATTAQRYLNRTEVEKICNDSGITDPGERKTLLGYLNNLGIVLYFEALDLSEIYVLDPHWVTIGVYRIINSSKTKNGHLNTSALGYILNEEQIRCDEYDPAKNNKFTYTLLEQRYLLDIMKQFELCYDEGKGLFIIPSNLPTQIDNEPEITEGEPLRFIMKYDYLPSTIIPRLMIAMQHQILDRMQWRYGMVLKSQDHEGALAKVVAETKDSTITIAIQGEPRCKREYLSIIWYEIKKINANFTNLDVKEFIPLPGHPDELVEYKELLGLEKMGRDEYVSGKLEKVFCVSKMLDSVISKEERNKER

## Nc1nc2c(ncn2[C@@H]2O[C@H](COP(=O)(O)OP(=O)(O)OP(=O)(O)O)[C@@H](O)[C@H]2O)c(=O)[nH]1 [GTP]
[1]
  stopped-flow Cy3/Cy5 FRET, monomerization: a fast decrease in FRET signal is observed upon mixing the protein

## Nc1nc2c(ncn2[C@@H]2O[C@H](COP(=O)(O)OP(=O)(O)NP(=O)(O)O)[C@@H](O)[C@H]2O)c(=O)[nH]1 [GppNHp]
[2]
  SEC-SAXS, SEC-MALS, native MS, SV-AUC (oligomeric shift): the GTP mimic GppNHp induces monomerization in a concentration dependent manner
[3]
  SEC-SAXS, SEC-MALS, native MS, AUC, negative-stain EM (oligomeric shift): As for CtRoc-COR this indicates that GppNHp induces monomerization

B1: CtRoc-COR L487A mutant (domain or fragment, Chlorobium tepidum, UniProt Q8KC98 412-946, looked up)
chain: T2 sequence (Q8KC98 412-946) with L76A
notes: Roco protein from Chlorobium tepidum, Roc-COR module a.a; 412-946, with L487A (analogue of LRRK2 I1371V); also called L487A CtRoc-COR
[4]
  single-turnover GTP hydrolysis rate constant (1 µM protein, 1 µM GTP, GDP formation by reversed-phase HPLC), L487A against wild-type CtRoc-COR: 4 fold decrease
[5]
  stoichiometry N: 2

B2: Roc-COR domain construct of the Chlorobium tepidum Roco protein (CtRoc-COR) (domain or fragment, UniProt Q8KC98 412-946, looked up)
chain: T2 sequence (Q8KC98 412-946)
notes: Roco protein from Chlorobium tepidum (CtRoco), central Roc-COR module, a.a; 412-946; The monomer chain is written; also called CtRoc-COR wt; Roc-COR module; source: E. coli BL21 (DE3), purified (Ni-NTA IMAC, EDTA treatment, Superdex S200 SEC)
[6]
  monomer/dimer ratio: ~1 monomer/dimer
[7]
  stoichiometry N: 2

B3: Roco protein from Chlorobium tepidum (CtRoco), full length (natural protein, UniProt Q8KC98 1-1102, looked up)
chain: T3 sequence (Q8KC98 1-1102)
notes: Roco protein from Chlorobium tepidum (CtRoco), a.a; 1-1102: LRR domain (1-411), Roc-COR module (412-946), C-terminal region (947-1102); also called CtRoco wt; C. tepidum Roco protein; source: E. coli BL21 (DE3), purified (Ni-NTA IMAC, EDTA treatment, Superdex S200 SEC)
[6]
  monomer-dimer ratio: 1 monomer/dimer
[8]
  Kd: ~30 µM
[7]
  stoichiometry N: 2
[9]
  Kd: ~2 µM

B4: CtRoco L487A mutant, full length (natural protein, Chlorobium tepidum, UniProt Q8KC98 1-1102, looked up)
chain: T3 sequence (Q8KC98 1-1102) with L487A
notes: Roco protein from Chlorobium tepidum (CtRoco), a.a; 1-1102, with L487A (analogue of LRRK2 I1371V); also called L487A CtRoco
[5]
  stoichiometry N: 2
